Results: patent publication US20260242735A1 (UNIVERSIT T BASEL, published 2026)
Values belong to the binder of their own block, whether it stands above or below them.

Key:
Experiment in all cases: flow cytometry, IgG on cells expressing the mutant
human CD33 variant M120I = human CD33 variant M120I (human, UniProt P20138 18-364)
human CD33 variant K52Y = human CD33 variant K52Y (human, UniProt P20138 18-364)
human CD33 variant P48I = human CD33 variant P48I (human, UniProt P20138 18-364)
human CD33 variant Y49I = human CD33 variant Y49I (human, UniProt P20138 18-364)
human CD33 variant M120L = human CD33 variant M120L (human, UniProt P20138 18-364)
human CD33 variant Y50H = human CD33 variant Y50H (human, UniProt P20138 18-364)
human CD33 variant I47F = human CD33 variant I47F (human, UniProt P20138 18-364)
human CD33 variant K52F = human CD33 variant K52F (human, UniProt P20138 18-364)
human CD33 variant Y50R = human CD33 variant Y50R (human, UniProt P20138 18-364)
human CD33 variant Y50I = human CD33 variant Y50I (human, UniProt P20138 18-364)
human CD33 variant Y49T = human CD33 variant Y49T (human, UniProt P20138 18-364)
human CD33 variant P48H = human CD33 variant P48H (human, UniProt P20138 18-364)
human CD33 variant K52T = human CD33 variant K52T (human, UniProt P20138 18-364)
human CD33 variant Y50L = human CD33 variant Y50L (human, UniProt P20138 18-364)
human CD33 variant Y49Q = human CD33 variant Y49Q (human, UniProt P20138 18-364)
human CD33 variant P48D = human CD33 variant P48D (human, UniProt P20138 18-364)
human CD33 variant I47P = human CD33 variant I47P (human, UniProt P20138 18-364)
human CD33 variant K52D = human CD33 variant K52D (human, UniProt P20138 18-364)
human CD33 variant Y129S = human CD33 variant Y129S (human, UniProt P20138 18-364)
human CD33 variant S131G = human CD33 variant S131G (human, UniProt P20138 18-364)
human CD33 variant P48Y = human CD33 variant P48Y (human, UniProt P20138 18-364)
human CD33 variant K52E = human CD33 variant K52E (human, UniProt P20138 18-364)
human CD33 variant P48N = human CD33 variant P48N (human, UniProt P20138 18-364)
human CD33 variant Y49S = human CD33 variant Y49S (human, UniProt P20138 18-364)
human CD33 variant P48K = human CD33 variant P48K (human, UniProt P20138 18-364)
human CD33 variant K52L = human CD33 variant K52L (human, UniProt P20138 18-364)
human CD33 variant D51Y = human CD33 variant D51Y (human, UniProt P20138 18-364)
human CD33 variant Y50S = human CD33 variant Y50S (human, UniProt P20138 18-364)
human CD33 variant P48W = human CD33 variant P48W (human, UniProt P20138 18-364)
human CD33 variant Y50P = human CD33 variant Y50P (human, UniProt P20138 18-364)
human CD33 variant I47Y = human CD33 variant I47Y (human, UniProt P20138 18-364)
human CD33 variant K52H = human CD33 variant K52H (human, UniProt P20138 18-364)
human CD33 variant P48Q = human CD33 variant P48Q (human, UniProt P20138 18-364)
human CD33 variant I47L = human CD33 variant I47L (human, UniProt P20138 18-364)
human CD33 variant K52G = human CD33 variant K52G (human, UniProt P20138 18-364)
human CD33 variant I47Q = human CD33 variant I47Q (human, UniProt P20138 18-364)

Chain of human CD33 variant Y49I (P20138 18-364 Y49I limits assumed): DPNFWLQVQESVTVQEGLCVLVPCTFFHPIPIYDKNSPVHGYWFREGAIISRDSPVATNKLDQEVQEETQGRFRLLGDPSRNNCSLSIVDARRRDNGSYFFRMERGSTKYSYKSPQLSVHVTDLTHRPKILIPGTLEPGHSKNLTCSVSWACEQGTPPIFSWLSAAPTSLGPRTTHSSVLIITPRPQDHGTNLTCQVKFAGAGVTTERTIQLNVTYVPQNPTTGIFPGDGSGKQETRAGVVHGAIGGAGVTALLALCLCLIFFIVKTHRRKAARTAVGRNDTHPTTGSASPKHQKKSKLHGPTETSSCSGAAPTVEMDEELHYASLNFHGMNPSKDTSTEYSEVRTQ
Chain of human CD33 variant M120I (P20138 18-364 M120I limits assumed): as the sequence (P20138 18-364 Y49I limits assumed) above, with I32Y, M103I counted along it
Chain of human CD33 variant I47Y (P20138 18-364 I47Y limits assumed): as the sequence (P20138 18-364 Y49I limits assumed) above, with I30Y, I32Y counted along it
Chain of human CD33 variant Y50I (P20138 18-364 Y50I limits assumed): as the sequence (P20138 18-364 Y49I limits assumed) above, with I32Y, Y33I counted along it
Chain of human CD33 variant K52L (P20138 18-364 K52L limits assumed): as the sequence (P20138 18-364 Y49I limits assumed) above, with I32Y, K35L counted along it
Chain of human CD33 variant K52H (P20138 18-364 K52H limits assumed): as the sequence (P20138 18-364 Y49I limits assumed) above, with I32Y, K35H counted along it
Chain of human CD33 variant Y49S (P20138 18-364 Y49S limits assumed): as the sequence (P20138 18-364 Y49I limits assumed) above, with I32S counted along it
Chain of human CD33 variant K52F (P20138 18-364 K52F limits assumed): as the sequence (P20138 18-364 Y49I limits assumed) above, with I32Y, K35F counted along it
Chain of human CD33 variant P48D (P20138 18-364 P48D limits assumed): as the sequence (P20138 18-364 Y49I limits assumed) above, with P31D, I32Y counted along it
Chain of human CD33 variant I47F (P20138 18-364 I47F limits assumed): as the sequence (P20138 18-364 Y49I limits assumed) above, with I30F, I32Y counted along it
Chain of human CD33 variant Y50L (P20138 18-364 Y50L limits assumed): as the sequence (P20138 18-364 Y49I limits assumed) above, with I32Y, Y33L counted along it
Chain of human CD33 variant P48Y (P20138 18-364 P48Y limits assumed): as the sequence (P20138 18-364 Y49I limits assumed) above, with P31Y, I32Y counted along it
Chain of human CD33 variant K52Y (P20138 18-364 K52Y limits assumed): as the sequence (P20138 18-364 Y49I limits assumed) above, with I32Y, K35Y counted along it
Chain of human CD33 variant P48H (P20138 18-364 P48H limits assumed): as the sequence (P20138 18-364 Y49I limits assumed) above, with P31H, I32Y counted along it

- Mean % WT Binding (human CD33 variant M120I): 95.7 % of WT
- Mean % WT Binding (human CD33 variant K52Y): 21 % of WT
- Mean % WT Binding (human CD33 variant P48I): 81.9 % of WT
- Mean % WT Binding (human CD33 variant Y49I): 94.3 % of WT
- Mean % WT Binding (human CD33 variant M120L): 124 % of WT
- Mean % WT Binding (human CD33 variant Y50H): 119 % of WT
- Mean % WT Binding (human CD33 variant I47F): 2.2 % of WT
- Mean % WT Binding (human CD33 variant K52F): 3.9 % of WT
- Mean % WT Binding (human CD33 variant Y50R): 109 % of WT
- Mean % WT Binding (human CD33 variant Y50I): 126 % of WT
- Mean % WT Binding (human CD33 variant Y49T): 76.3 % of WT
- Mean % WT Binding (human CD33 variant P48H): 81.9 % of WT
- Mean % WT Binding (human CD33 variant K52T): 120 % of WT
- Mean % WT Binding (human CD33 variant Y50L): 119 % of WT
- Mean % WT Binding (human CD33 variant Y49Q): 17.4 % of WT
- Mean % WT Binding (human CD33 variant P48D): 10.4 % of WT
- Mean % WT Binding (human CD33 variant I47P): 0.7 % of WT
- Mean % WT Binding (human CD33 variant K52D): 5.3 % of WT
- Mean % WT Binding (human CD33 variant Y129S): 102 % of WT
- Mean % WT Binding (human CD33 variant S131G): 112 % of WT
- Mean % WT Binding (human CD33 variant P48Y): 21.6 % of WT
- Mean % WT Binding (human CD33 variant K52E): 52.4 % of WT
- Mean % WT Binding (human CD33 variant P48N): 95.2 % of WT
- Mean % WT Binding (human CD33 variant Y49S): 87.2 % of WT
- Mean % WT Binding (human CD33 variant P48K): 106 % of WT
- Mean % WT Binding (human CD33 variant K52L): 74.8 % of WT
- Mean % WT Binding (human CD33 variant D51Y): 69.8 % of WT
- Mean % WT Binding (human CD33 variant Y50S): 123 % of WT
- Mean % WT Binding (human CD33 variant P48W): 68.8 % of WT
- Mean % WT Binding (human CD33 variant Y50P): 95.8 % of WT
- Mean % WT Binding (human CD33 variant I47Y): 1.4 % of WT
- Mean % WT Binding (human CD33 variant K52H): 84.7 % of WT
- Mean % WT Binding (human CD33 variant P48Q): 106 % of WT
- Mean % WT Binding (human CD33 variant I47L): 2.8 % of WT
- Mean % WT Binding (human CD33 variant K52G): 25.4 % of WT
B1: Refmab #2 (antibody, human IgG1, V domains shown)
VH: QVQLVQSGAEVKKPGSSVKVSCKASGGTFSDYAISWVRQAPGQGLEWMGRIIPILGVADYAQKFQGRVTITADKSTRTAYMELSSLRSEDTAVYYCARNWADAFDIWGQGTMVTVSS
VL: DIQLTQSPSSLSASVGDRVTITCRASQGISSVLAWYQQKPGKAPKLLIYDASSLESGVPSRFSGSGSGTDFTLTISSLQPEDFATYYCQQFDSSITFGQGTKLEIK
notes: Tested in IgG format; human IgG1 Fc silent (PG-LALA)

- Mean % WT Binding (human CD33 variant M120I): 96.6 % of WT
- Mean % WT Binding (human CD33 variant K52Y): 45 % of WT
- Mean % WT Binding (human CD33 variant P48I): 107 % of WT
- Mean % WT Binding (human CD33 variant Y49I): 109 % of WT
- Mean % WT Binding (human CD33 variant M120L): 98.4 % of WT
- Mean % WT Binding (human CD33 variant Y50H): 103 % of WT
- Mean % WT Binding (human CD33 variant I47F): 101 % of WT
- Mean % WT Binding (human CD33 variant K52F): 4.5 % of WT
- Mean % WT Binding (human CD33 variant Y50R): 94.1 % of WT
- Mean % WT Binding (human CD33 variant Y50I): 99.2 % of WT
- Mean % WT Binding (human CD33 variant Y49T): 108 % of WT
- Mean % WT Binding (human CD33 variant P48H): 97.4 % of WT
- Mean % WT Binding (human CD33 variant K52T): 102 % of WT
- Mean % WT Binding (human CD33 variant I47Q): 104 % of WT
- Mean % WT Binding (human CD33 variant Y50L): 109 % of WT
- Mean % WT Binding (human CD33 variant Y49Q): 105 % of WT
- Mean % WT Binding (human CD33 variant P48D): 109 % of WT
- Mean % WT Binding (human CD33 variant I47P): 84.5 % of WT
- Mean % WT Binding (human CD33 variant K52D): 101 % of WT
- Mean % WT Binding (human CD33 variant Y129S): 68.7 % of WT
- Mean % WT Binding (human CD33 variant S131G): 95.1 % of WT
- Mean % WT Binding (human CD33 variant P48Y): 99.5 % of WT
- Mean % WT Binding (human CD33 variant K52E): 98.6 % of WT
- Mean % WT Binding (human CD33 variant P48N): 100 % of WT
- Mean % WT Binding (human CD33 variant Y49S): 107 % of WT
- Mean % WT Binding (human CD33 variant P48K): 99.4 % of WT
- Mean % WT Binding (human CD33 variant K52L): 97.6 % of WT
- Mean % WT Binding (human CD33 variant D51Y): 94.4 % of WT
- Mean % WT Binding (human CD33 variant Y50S): 101 % of WT
- Mean % WT Binding (human CD33 variant P48W): 95.6 % of WT
- Mean % WT Binding (human CD33 variant Y50P): 98.1 % of WT
- Mean % WT Binding (human CD33 variant I47Y): 110 % of WT
- Mean % WT Binding (human CD33 variant K52H): 94.2 % of WT
- Mean % WT Binding (human CD33 variant P48Q): 120 % of WT
- Mean % WT Binding (human CD33 variant I47L): 112 % of WT
- Mean % WT Binding (human CD33 variant K52G): 98.8 % of WT
B2: Refmab #1 (antibody, human IgG1, V domains shown)
VH: EVQLVQSGAEVKKPGSSVKVSCKASGYTITDSNIHWVRQAPGQSLEWIGYIYPYNGGTDYNQKFKNRATLTVDNPTNTAYMELSSLRSEDTAFYYCVNGNPWLAYWGQGTLVTVSS
VL: DIQLTQSPSTLSASVGDRVTITCRASESLDNYGIRFLTWFQQKPGKAPKLLMYAASNQGSGVPSRFSGSGSGTEFTLTISSLQPDDFATYYCQQTKEVPWSFGQGTKVEVK
notes: Tested in IgG format; human IgG1 (Absolute Antibody hP67.6, Cat. No. Ab00283-10.0); also called hP67.6
